The record followed here is US20100145008A1 (published 2010).

Sequences and labels used below:
B1: Lys_B3 (designed binder)
chain: GSVKVKFDLCGEEKEVDTSKIVYVARDGKTVLFMYDDNGKSGRGEVSEKDAPKELLDMLARAEREKKL
B2: Lys_H4 (designed binder)
chain: GSVKVKFFWNGEEKEVDTSKIVWVKRAGKCVLFIYDDNGKNGYGDVTEKDAPKELLDMLARAEREKKL
B3: Lys_H8 (designed binder)
chain: GSVKVKFVMCGEEKEVDTSKIITVKRTGKEVDFLYDDNGKNGYGTVYEKDAPKELLDMLARAEREKKL

The test deals with T1, lysozyme (Gallus gallus (Chicken), UniProt P00698 19-147).
T1 construct: also called Lysozyme (14.3 kDa)
T1 sequence (P00698 19-147 limits assumed, form in doubt): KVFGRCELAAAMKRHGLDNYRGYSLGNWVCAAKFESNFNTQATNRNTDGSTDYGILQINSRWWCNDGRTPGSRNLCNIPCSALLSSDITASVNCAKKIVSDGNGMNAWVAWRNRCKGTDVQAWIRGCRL
Briefly: Biacore, preliminary data. On the technique in general: In SPR one partner is held on a chip, and binding of the other changes the refractive index at the surface.
With B1, the Kd – broadly, the constant that tells how readily two partners part at equilibrium – was around 15 nM.

With B2, the Kd is around 3 nM.

In turn, B3 came in with a Kd of around 25 nM.
